Target: traptavidin (streptavidin-variant), expressed and purified by IMAC (Streptomyces avidinii) (UniProt P22629)
Experiment: native MS; native electrospray ionization mass spectrometry of the IMAC-purified proteins; oligomeric state of the protomers (tetramer), no cross-linker

- percent of the protein that is tetrameric: 95%
- stoichiometry N: 4
Substance: traptavidin (streptavidin-variant), expressed and purified by IMAC (from UniProt P22629 25-183) (natural protein)

Source: paper PMC13098475
